Assay results taken from IntAct's records for PubMed 26711270.

B1: Protein ecdysoneless homolog (Homo sapiens), O95905 (parent)
chain: MEETMKLATMEDTVEYCLFLIPDESRDSDKHKEILQKYIERIITRFAPMLVPYIWQNQPFNLKYKPGKGGVPAHMFGVTKFGDNIEDEWFIVYVIKQITKEFPELVARIEDNDGEFLLIEAADFLPKWLDPENSTNRVFFCHGELCIIPAPRKSGAESWLPTTPPTIPQALNIITAHSEKILASESIRAAVNRRIRGYPEKIQASLHRAHCFLPAGIVAVLKQRPRLVAAAVQAFYLRDPIDLRACRVFKTFLPETRIMTSVTFTKCLYAQLVQQRFVPDRRSGYRLPPPSDPQYRAHELGMKLAHGFEILCSKCSPHFSDCKKSLVTASPLWASFLESLKKNDYFKGLIEGSAQYRERLEMAENYFQLSVDWPESSLAMSPGEEILTLLQTIPFDIEDLKKEAANLPPEDDDQWLDLSPDQLDQLLQEAVGKKESESVSKEEKEQNYDLTEVSESMKAFISKVSTHKGAELPREPSEAPITFDADSFLNYFDKILGPRPNESDSDDLDDEDFECLDSDDDLDFETHEPGEEASLKGTLDNLKSYMAQMDQELAHTCISKSFTTRNQVEPVSQTTDNNSDEEDSGTGESVMAPVDVDLNLVSNILESYSSQAGLAGPASNLLQSMGVQLPDNTDHRPTSKPTKN

Variants of: B1
Settings: with pihd1_human PIH1D1, Q9NWS0
pihd1_human PIH1D1, Q9NWS0, sequence (Q9NWS0 whole entry): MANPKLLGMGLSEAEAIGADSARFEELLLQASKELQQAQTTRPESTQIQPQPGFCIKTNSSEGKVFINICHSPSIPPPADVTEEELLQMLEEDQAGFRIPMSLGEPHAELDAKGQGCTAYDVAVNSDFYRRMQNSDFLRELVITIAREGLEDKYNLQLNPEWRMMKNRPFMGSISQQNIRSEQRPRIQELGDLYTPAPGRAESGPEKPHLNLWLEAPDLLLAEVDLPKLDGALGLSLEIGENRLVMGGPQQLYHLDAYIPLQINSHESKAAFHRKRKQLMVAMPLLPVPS

Effect of a mutation on the interaction, disrupting interaction:
S503A;S505A;S518A
S503D;S505D;S518D;S572D;S579D;S584D
S503A;S505A;S518A;S572A;S579A;S584A
